The values below come from article doi:10.1101/2020.09.18.301952.

The target of the experiment is stabilized soluble SARS-CoV-2 S protein trimer (SARS-CoV-2) (UniProt P0DTC2). Description: cryo-EM structure.

Substance “monomeric soluble ACE2 (ACE2_(615)) (from UniProt Q9BYF1 18-615) (domain or fragment)” returned a stoichiometry N (ACE2 per S trimer) of 3.
